Reference: patent US20190022241A1 (AbbVie / Abbott, published 2019)

B1: SC17.6 (antibody, V domains shown)
VH: EVQLQQSGPELMKPGASVKMSCKASGYTFTDYNMYWVKQNQGKSLEWIGEINPNNGGTAYNQKFRGKATLTVDKSSSTAYMELRSLTSEDSAVYYCARYDKGFDYWGQGTTLTVSS
VL: DIQMTQSPASLSVSVGETVTITCRASANINSNLVWYQQKQGKSPQLLVYAATNLADGVPSRFSGSGSGTQYSLKINSLQSEDFGNYYCQHFWGTPRTFGGGTKLEIK
notes: murine mAb; also called SC17.16 (duplicate)
B2: SC17.161 (antibody, V domains shown)
VH: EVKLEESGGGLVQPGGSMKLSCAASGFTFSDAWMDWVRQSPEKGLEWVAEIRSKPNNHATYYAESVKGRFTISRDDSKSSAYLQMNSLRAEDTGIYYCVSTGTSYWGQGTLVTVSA
VL: DIVMSQSPSSLAVSVGEKVTMNCESSQSLLYNSNQKNYLAWYQQKPGQSPKLLIYWASTRDSGVPDRFTGSGSGTDFTLTISSVRADDPAVYYCQQYFNYPLTFGAGTKLELK
notes: murine mAb
B3: SC17.85 (antibody, V domains shown)
VH: EVQLVESGGDLVKPGGSLKLSCAASGFTFSNYGMSWVRQTPDKRLEWVATISTGGTYTYYPDSVKGRFTISRDNAKNTLYLQMSSLKSEDTAMYYCVGQSYSDYVSFAYWGQGTQVTVSA
VL: DIVMTQAAFSNPVTLGTSASISCRSSKSLLHSNGITYLYWYLQKPGQSPQLLIYQMSNLASGVPERFSSSGSGSDFTLRISRVEAEDVGVYYCAQNLEHPTFGGGTKLEIK
notes: murine mAb
B4: SC17.91 (antibody, V domains shown)
VH: EVQLVESGGGLVKPGGSRKLSCAASGFTFSDYGMHWVRQAPEKGLEWVAYISRGSSTIHYADTVKGRFTISRDNAKNTLFLQMTSLRSEDTAMYYCARPFNWYFDVWGAGTTVTVSS
VL: DVVMTQTPLSLPVSLGDQASISCRSSQSLVHSNGNTYLLWYLQKPGQSPKLLIYKVSNRFSGVPDRFSGSGSGTDFALKISRVEAEDLGVYFCSQSTHVPWTFGGGTKLEIK
notes: murine mAb
B5: SC17.19 (antibody, V domains shown)
VH: DVQLQESGPGLVKPSQSLSVTCTVTGYSITSSYTWNWIRQFPGNKLEWMGYIHYSGSTNYNPSLRSRISITRDTSKNQFFLQLNSVTTEDTATYYCARSRYYYDAYGFAYWGQGTLVTVSA
VL: DIVLTQSPASLAVSLGQRAAISCKPSQSVDYDGDSYMNWYQQKPGQPPKLLIYAASNLESGIPARFSGSGSGTDFTLNIHPVEEEDAATYYCHQINDDPWTFGGGTKLK
notes: murine mAb

Assays:
[1] = target: T1, mouse SEZ6 on Neuro2a cells (mouse, UniProt Q7TSK2 20-991); assay: flow cytometry, Neuro2a cells, 5 ug/mL antibody
T1 construct: endogenous on Neuro2a cells; also called murine SEZ6; mSEZ6
Protocol: (§1) Briefly 1×10⁵ cells per well of Neuro2a, RIN-5mF, or yeast displaying cynomolgus SEZ6 cells were incubated for 30 minutes with 50 μL PBS (2% FCS) buffer with 5 μg/mL antibody. […] After incubating for 15 minutes cells were washed twice with the PBS buffer and re-suspended in the same with DAPI for flow cytometry analysis of Neuro2a and Rin-m5F or buffer without DAPI for flow cytometric analysis of yeast cells with cSEZ6.

[2] = target: T2, rat SEZ6 on RIN-m5F cells (rat, UniProt Q7TSK2 20-991 (mouse entry)); assay: flow cytometry, RIN-m5F cells, 5 ug/mL antibody
T2 construct: endogenous on RIN-m5F cells; also called rSEZ6
T2 chain: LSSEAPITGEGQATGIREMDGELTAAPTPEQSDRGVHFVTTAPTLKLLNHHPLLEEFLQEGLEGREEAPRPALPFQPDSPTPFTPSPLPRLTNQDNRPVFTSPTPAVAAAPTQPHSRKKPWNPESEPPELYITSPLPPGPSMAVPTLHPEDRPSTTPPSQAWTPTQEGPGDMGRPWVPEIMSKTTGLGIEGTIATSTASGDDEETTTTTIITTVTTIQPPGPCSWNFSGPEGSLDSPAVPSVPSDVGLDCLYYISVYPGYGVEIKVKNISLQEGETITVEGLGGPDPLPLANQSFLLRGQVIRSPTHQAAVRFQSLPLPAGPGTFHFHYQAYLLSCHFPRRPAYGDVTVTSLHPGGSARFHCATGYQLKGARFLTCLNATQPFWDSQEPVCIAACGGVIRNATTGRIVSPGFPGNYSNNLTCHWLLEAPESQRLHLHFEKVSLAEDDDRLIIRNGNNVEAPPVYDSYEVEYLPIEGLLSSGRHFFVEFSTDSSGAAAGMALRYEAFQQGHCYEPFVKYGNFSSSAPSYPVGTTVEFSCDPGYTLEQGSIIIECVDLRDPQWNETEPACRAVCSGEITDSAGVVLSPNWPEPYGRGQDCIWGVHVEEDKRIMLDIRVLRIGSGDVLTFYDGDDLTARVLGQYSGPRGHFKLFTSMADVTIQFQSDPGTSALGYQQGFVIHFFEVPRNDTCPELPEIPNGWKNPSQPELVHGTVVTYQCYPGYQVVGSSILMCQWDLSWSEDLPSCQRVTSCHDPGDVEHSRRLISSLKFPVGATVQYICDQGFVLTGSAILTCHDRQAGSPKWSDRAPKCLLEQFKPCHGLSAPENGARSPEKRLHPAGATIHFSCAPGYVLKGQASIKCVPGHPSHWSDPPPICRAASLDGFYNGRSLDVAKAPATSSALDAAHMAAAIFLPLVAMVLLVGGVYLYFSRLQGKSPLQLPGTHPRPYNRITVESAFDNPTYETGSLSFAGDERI
Protocol: as §1

human SEZ6L2 ECD-His = target: T3, human SEZ6L2 ECD-His (human, UniProt Q6UXD5 28-843); assay: mark of Table 5 for antibodies that bind SEZ6L2
T3 construct: whole entry named

human SEZ6L ECD-His = target: T4, human SEZ6L ECD-His (human, UniProt Q9BYH1 29-955); assay: ELISA on plates coated with SEZ6L protein
T4 construct: whole entry named
T4 sequence: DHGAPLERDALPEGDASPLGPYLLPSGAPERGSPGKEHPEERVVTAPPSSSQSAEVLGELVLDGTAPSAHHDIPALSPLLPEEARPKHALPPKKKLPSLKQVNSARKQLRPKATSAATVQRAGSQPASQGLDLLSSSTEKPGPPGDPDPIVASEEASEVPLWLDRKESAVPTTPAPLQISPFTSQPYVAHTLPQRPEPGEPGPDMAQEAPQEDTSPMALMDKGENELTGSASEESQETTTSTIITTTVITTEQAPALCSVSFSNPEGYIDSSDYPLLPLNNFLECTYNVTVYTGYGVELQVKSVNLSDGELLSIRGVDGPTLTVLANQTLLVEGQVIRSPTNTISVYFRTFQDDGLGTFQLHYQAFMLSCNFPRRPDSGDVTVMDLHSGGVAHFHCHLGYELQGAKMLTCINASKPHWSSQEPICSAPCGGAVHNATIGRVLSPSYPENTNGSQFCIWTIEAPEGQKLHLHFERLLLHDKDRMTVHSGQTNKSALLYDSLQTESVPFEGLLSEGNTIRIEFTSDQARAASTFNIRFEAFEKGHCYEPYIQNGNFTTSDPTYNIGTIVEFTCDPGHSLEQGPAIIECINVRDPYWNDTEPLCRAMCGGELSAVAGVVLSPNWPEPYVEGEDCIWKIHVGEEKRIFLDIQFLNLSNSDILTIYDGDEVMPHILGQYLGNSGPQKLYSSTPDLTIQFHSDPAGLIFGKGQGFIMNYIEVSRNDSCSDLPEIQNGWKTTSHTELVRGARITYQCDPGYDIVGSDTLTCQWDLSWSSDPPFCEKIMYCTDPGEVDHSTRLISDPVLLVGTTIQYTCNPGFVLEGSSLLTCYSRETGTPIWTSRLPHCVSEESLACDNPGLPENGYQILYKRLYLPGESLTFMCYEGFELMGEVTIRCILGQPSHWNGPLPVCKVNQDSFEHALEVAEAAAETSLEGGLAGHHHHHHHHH
Protocol: To determine cross reactivity to family member proteins, SEZ6L and SEZ6L2, an ELISA-based assay was used. Plates were coated with SEZ6, SEZ6L, or SEZ6L2 proteins at 0.2 μg/mL in PBS overnight. After washing with PBS containing 0.05% (v/v) Tween 20 (PB ST), the wells were blocked with 2% (w/v) BSA in PBS (PB SA), 100 μL/well for 1 hour at room temperature. Antibody was then added at 1 μg/mL in 100 μL PBSA for 1 hour at room temperature. After washing with PBST, 100 μL/well HRP-labeled goat anti-mouse IgG diluted 1:2,000 in PBSA for 1 hour at room temperature. […] After developing, an equal volume of 2M H₂SO₄ was added to stop substrate development and analyzed by spectrophotometer at OD 450.

rSEZ6-ECD-His = target: T5, rSEZ6-ECD-His (rat, UniProt Q7TSK2 20-922 (mouse entry)); assay: bio-layer interferometry (ForteBio RED) or surface plasmon resonance (Biacore 2000) on rat SEZ6-His; the table does not say which; column Rat XR (Kd, nM)
T5 construct: the whole entry is named; also called rat recombinant SEZ6-His; rat SEZ6 ECD
T5 chain: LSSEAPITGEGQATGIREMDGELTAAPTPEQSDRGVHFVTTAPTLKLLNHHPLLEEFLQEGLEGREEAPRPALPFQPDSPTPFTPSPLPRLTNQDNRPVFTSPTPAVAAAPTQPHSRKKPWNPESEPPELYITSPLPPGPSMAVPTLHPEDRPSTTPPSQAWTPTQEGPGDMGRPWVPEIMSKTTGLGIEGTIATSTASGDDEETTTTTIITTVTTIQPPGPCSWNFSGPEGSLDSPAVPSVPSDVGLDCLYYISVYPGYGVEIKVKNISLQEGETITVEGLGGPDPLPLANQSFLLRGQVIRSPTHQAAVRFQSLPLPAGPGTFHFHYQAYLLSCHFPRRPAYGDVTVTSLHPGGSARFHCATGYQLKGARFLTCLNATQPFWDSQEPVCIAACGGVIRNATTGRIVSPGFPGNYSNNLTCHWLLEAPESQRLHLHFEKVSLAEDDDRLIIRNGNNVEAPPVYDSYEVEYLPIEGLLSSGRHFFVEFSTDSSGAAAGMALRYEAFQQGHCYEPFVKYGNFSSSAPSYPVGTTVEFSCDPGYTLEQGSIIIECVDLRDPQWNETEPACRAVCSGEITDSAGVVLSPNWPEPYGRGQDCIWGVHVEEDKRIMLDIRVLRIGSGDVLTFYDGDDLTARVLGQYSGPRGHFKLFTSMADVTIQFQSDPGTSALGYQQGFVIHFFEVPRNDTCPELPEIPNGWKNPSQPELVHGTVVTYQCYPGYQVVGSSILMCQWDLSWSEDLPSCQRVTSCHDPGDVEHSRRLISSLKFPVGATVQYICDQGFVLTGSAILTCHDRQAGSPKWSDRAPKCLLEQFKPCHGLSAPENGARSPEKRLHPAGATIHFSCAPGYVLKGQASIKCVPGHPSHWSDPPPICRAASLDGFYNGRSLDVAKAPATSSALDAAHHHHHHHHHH
Description: (§2) Various methods were used to analyze the binding and immunochemical characteristics of selected SEZ6 modulators generated as set forth above.

hSEZ6-ECD-His = target: T6, hSEZ6-ECD-His (human, UniProt Q53EL9 20-925); assay: bio-layer interferometry (ForteBio RED) or surface plasmon resonance (Biacore 2000) on human SEZ6-His; the table does not say which; column Hu Affinity (Kd, nM)
T6 construct: the whole entry is named; also called recombinant SEZ6-His; human recombinant SEZ6-His
Description: as §2

[3] = target: T7, SEZ6 N3 (aa 170-335) on yeast (human, UniProt Q53EL9 189-354); assay: yeast display, flow cytometry;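 note: antibody binding to individual SEZ6 domains displayed on yeast, measured by flow cytometry, antibody at 50 nM purified or hybridoma supernatant diluted 1:2, 90 min on ice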
T7 construct: yeast display
T7 sequence: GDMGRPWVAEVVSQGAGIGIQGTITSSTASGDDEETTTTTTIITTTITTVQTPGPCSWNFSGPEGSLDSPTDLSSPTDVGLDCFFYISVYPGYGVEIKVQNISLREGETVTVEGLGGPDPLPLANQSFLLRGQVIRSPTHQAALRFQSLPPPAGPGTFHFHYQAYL
Protocol: Individual domains of SEZ6 were expressed on the surface of yeast and binding by each SEZ6 antibody was determined through flow cytometry.
To test for binding to a particular construct, 200,000 induced yeast cells expressing the desired construct were washed twice in PBS+1 mg/mL BSA (PBSA), and incubated in 50 of PBSA with chicken anti c-myc (Life Technologies) at 0.1 μg/mL and either 50 nM purified antibody or 1:2 dilution of unpurified supernatant from hybridomas cultured for 7 days. Cells were incubated for 90 minutes on ice and then washed twice in PBSA. […] After twenty minutes' incubation on ice, cells were washed twice with PBSA and analyzed on a FACS Canto II.

T3 sequence (Q6UXD5 other isoform, or with tags, fused parts or gaps): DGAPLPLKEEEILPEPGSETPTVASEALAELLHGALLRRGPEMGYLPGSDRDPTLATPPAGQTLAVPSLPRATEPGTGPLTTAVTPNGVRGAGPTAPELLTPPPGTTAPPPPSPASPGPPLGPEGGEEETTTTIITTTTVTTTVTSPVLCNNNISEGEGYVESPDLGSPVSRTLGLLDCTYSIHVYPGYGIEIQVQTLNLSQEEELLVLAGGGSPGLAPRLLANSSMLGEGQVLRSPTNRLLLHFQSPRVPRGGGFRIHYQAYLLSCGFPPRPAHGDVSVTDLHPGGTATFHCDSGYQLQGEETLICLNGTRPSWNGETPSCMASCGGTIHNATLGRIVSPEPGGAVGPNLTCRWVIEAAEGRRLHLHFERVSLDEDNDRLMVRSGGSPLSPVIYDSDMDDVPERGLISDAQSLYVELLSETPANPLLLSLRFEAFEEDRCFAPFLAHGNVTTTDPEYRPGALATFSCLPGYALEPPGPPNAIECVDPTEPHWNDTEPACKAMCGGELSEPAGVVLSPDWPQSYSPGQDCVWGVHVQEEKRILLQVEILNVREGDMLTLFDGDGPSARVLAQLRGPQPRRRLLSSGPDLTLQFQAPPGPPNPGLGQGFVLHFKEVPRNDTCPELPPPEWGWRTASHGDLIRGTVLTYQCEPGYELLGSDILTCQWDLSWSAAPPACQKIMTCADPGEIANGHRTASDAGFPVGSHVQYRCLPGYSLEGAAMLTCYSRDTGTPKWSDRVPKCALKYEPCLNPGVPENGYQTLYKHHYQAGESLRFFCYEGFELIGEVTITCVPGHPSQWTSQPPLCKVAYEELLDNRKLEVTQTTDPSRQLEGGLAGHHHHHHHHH

| binding result [1] | binding result [2] | binding result (human SEZ6L2 ECD-His) | binding result (human SEZ6L ECD-His) | Kd (rSEZ6-ECD-His) [nM] | Kd (hSEZ6-ECD-His) [nM] | binding result [3] | Binder |
| --- | --- | --- | --- | --- | --- | --- | --- |
| binds | binds | binds | no binding (tested: 1 µg/mL) | < 1 | < 1 |  | B1 |
|  |  |  |  |  |  | binds | B2 |
|  |  |  |  |  |  | binds | B3 |
|  |  |  |  |  |  | binds | B4 |
| binds | binds | binds | no binding (tested: 1 µg/mL) |  | 5.3 |  | B5 |
